Data from the supplement of paper PMC11246515.
± gives the standard deviation of the averaged measurements.

Test: total protein half-life in vivo (active degradation + dilution); higher = more stable protein
[1] = E. coli NCM3722 delta-clpP delta-lon delta-hslV, growth: N-lim chemostat, doubling time 6 h
[2] = E. coli NCM3722 delta-clpP, growth: N-lim chemostat, doubling time 6 h
[3] = E. coli NCM3722 delta-hslV, growth: N-lim chemostat, doubling time 6 h
[4] = E. coli NCM3722 delta-lon, growth: N-lim chemostat, doubling time 6 h
[5] = E. coli NCM3722 delta-smpB, growth: N-lim chemostat, doubling time 6 h
[6] = wild type E. coli NCM3722, growth: C-lim chemostat, doubling time 3 h
[7] = wild type E. coli NCM3722, growth: C-lim chemostat, doubling time 6 h
[8] = wild type E. coli NCM3722, growth: C-lim chemostat, doubling time 12 h
[9] = wild type E. coli NCM3722, growth: N-lim chemostat, doubling time 6 h
[10] = wild type E. coli NCM3722, growth: N-lim chemostat, doubling time 12 h
[11] = wild type E. coli NCM3722, growth: P-lim chemostat, doubling time 6 h
[12] = wild type E. coli NCM3722, growth: P-lim chemostat, doubling time 12 h

In the case of “MFRGATLVNLDSKGRLSVPTRYREQLLENAAGQMVCTIDIYHPCLLLYPLPEWEIIEQKLSRLSSMNPVERRVQRLLLGHASECQMDGAGRLLIAPVLRQHAGLTKEVMLVGQFNKFELWDETTWHQQVKEDIDAEQLATGDLSERLQDLSL”, the “total protein half-life in vivo” value [1] is reported as 7.01 ± 0.38 h, the “total protein half-life in vivo” value [2] is reported as 6.48 ± 0.5 h and the “total protein half-life in vivo” value [3] is reported as 6.33 ± 0.068 h. For the same sequence, the “total protein half-life in vivo” value [4] was 6.98 ± 0.57 h, the “total protein half-life in vivo” value [5] was 5.69 ± 0.38 h and the “total protein half-life in vivo” value [6] was 3.22 ± 0.08 h. For the same sequence, the “total protein half-life in vivo” value [7] was 6.14 ± 0.43 h, the “total protein half-life in vivo” value [8] was 12.19 ± 0.11 h and the “total protein half-life in vivo” value [9] was 5.98 ± 0.57 h. The “total protein half-life in vivo” value [10] was 12.9 ± 0.16 h, the “total protein half-life in vivo” value [11] was 6.8 ± 0.66 h and the “total protein half-life in vivo” value [12] was 14.04 ± 0.07 h.

In the case of “MFRLNPFVRVGLCLSAISCAWPVLAVDDDGETMVVTASSVEQNLKDAPASISVITQEDLQRKPVQNLKDVLKEVPGVQLTNEGDNRKGVSIRGLDSSYTLILVDGKRVNSRNAVFRHNDFDLNWIPVDSIERIEVVRGPMSSLYGSDALGGVVNIITKKIGQKWSGTVTVDTTIQEHRDRGDTYNGQFFTSGPLIDGVLGMKAYGSLAKREKDDPQNSTTTDTGETPRIEGFSSRDGNVEFAWTPNQNHDFTAGYGFDRQDRDSDSLDKNRLERQNYSVSHNGRWDYGTSELKYYGEKVENKNPGNSSPITSESNTVDGKYTLPLTAINQFLTVGGEWRHDKLSDAVNLTGGTSSKTSASQYALFVEDEWRIFEPLALTTGVRMDDHETYGEHWSPRAYLVYNATDTVTVKGGWATAFKAPSLLQLSPDWTSNSCRGACKIVGSPDLKPETSESWELGLYYMGEEGWLEGVESSVTVFRNDVKDRISISRTSDVNAAPGYQNFVGFETGANGRRIPVFSYYNVNKARIQGVETELKIPFNDEWKLSINYTYNDGRDVSNGENKPLSDLPFHTANGTLDWKPLALEDWSFYVSGHYTGQKRADSATAKTPGGYTIWNTGAAWQVTKDVKLRAGVLNLGDKDLSRDDYSYNEDGRRYFMAVDYRF”, the “total protein half-life in vivo” value [6] is reported as 3.86 ± 0.058 h, the “total protein half-life in vivo” value [10] is reported as > 16 h and the “total protein half-life in vivo” value [12] is reported as > 16 h.

In the case of “MFSIQQPLLVFSDLDGTLLDSHSYDWQPAAPWLTRLREANVPVILCSSKTSAEMLYLQKTLGLQGLPLIAENGAVIQLAEQWQEIDGFPRIISGISHGEISLVLNTLREKEHFKFTTFDDVDDATIAEWTGLSRSQAALTQLHEASVTLIWRDSDERMAQFTARLNELGLQFMQGARFWHVLDASAGKDQAANWIIATYQQLSGKRPTTLGLGDGPNDAPLLEVMDYAVIVKGLNREGVHLHDEDPARVWRTQREGPEGWREGLDHFFSAR”, the “total protein half-life in vivo” value [1] is reported as 4.98 ± 0.28 h, the “total protein half-life in vivo” value [2] is reported as 4.08 ± 0.42 h and the “total protein half-life in vivo” value [3] is reported as 4.17 ± 0.055 h. The “total protein half-life in vivo” value [4] was 4.3 ± 0.26 h, the “total protein half-life in vivo” value [5] was 3.73 ± 0.22 h and the “total protein half-life in vivo” value [6] was 2.87 ± 0.076 h. For the same sequence, the “total protein half-life in vivo” value [7] was 5.25 ± 0.12 h, the “total protein half-life in vivo” value [8] was 8.64 ± 0.059 h and the “total protein half-life in vivo” value [9] was 4.167 ± 0.036 h. For the same sequence, the “total protein half-life in vivo” value [10] was 6.751 ± 0.019 h, the “total protein half-life in vivo” value [11] was 5.43 ± 0.42 h and the “total protein half-life in vivo” value [12] was 10.5 ± 0.14 h.

In the case of “MFTFIKKVIKTGTATSSYPLEPIAVDKNFRGKPEQNPQQCIGCAACVNACPSNALTVETDLATGELAWEFNLGHCIFCGRCEEVCPTAAIKLSQEYELAVWKKEDFLQQSRFALCNCRVCNRPFAVQKEIDYAIALLKHNGDSRAENHRESFETCPECKRQKCLVPSDRIELTRHMKEAI”, the “total protein half-life in vivo” value [1] is reported as 2.95 h.

With “MFTKRHRITLLFNANKAYDRQVVEGVGEYLQASQSEWDIFIEEDFRARIDKIKDWLGDGVIADFDDKQIEQALADVDVPIVGVGGSYHLAESYPPVHYIATDNYALVESAFLHLKEKGVNRFAFYGLPESSGKRWATEREYAFRQLVAEEKYRGVVYQGLETAPENWQHAQNRLADWLQTLPPQTGIIAVTDARARHILQVCEHLHIPVPEKLCVIGIDNEELTRYLSRVALSSVAQGARQMGYQAAKLLHRLLDKEEMPLQRILVPPVRVIERRSTDYRSLTDPAVIQAMHYIRNHACKGIKVDQVLDAVGISRSNLEKRFKEEVGETIHAMIHAEKLEKARSLLISTTLSINEISQMCGYPSLQYFYSVFKKAYDTTPKEYRDVNSEVML [P0ACI3]” the “total protein half-life in vivo” value [1] was 5.66 ± 0.54 h, the “total protein half-life in vivo” value [2] was 5.86 ± 0.86 h and the “total protein half-life in vivo” value [4] was 3.81 ± 0.22 h. For the same sequence, the “total protein half-life in vivo” value [5] was 3.05 ± 0.42 h, the “total protein half-life in vivo” value [6] was 2.89 ± 0.14 h and the “total protein half-life in vivo” value [7] was 5.27 ± 0.069 h. The “total protein half-life in vivo” value [8] was 9.26 ± 0.14 h, the “total protein half-life in vivo” value [9] was 3.78 ± 0.56 h and the “total protein half-life in vivo” value [10] was 4.44 ± 1.1 h. The “total protein half-life in vivo” value [11] was 5.4 ± 0.33 h and the “total protein half-life in vivo” value [12] was 9.78 ± 0.94 h.

In the case of “MFTRVANFCRKVLSREESEAEQAVARPQVTVIPREQHAISRKDISENALKVMYRLNKAGYEAWLVGGGVRDLLLGKKPKDFDVTTNATPEQVRKLFRNCRLVGRRFRLAHVMFGPEIIEVATFRGHHEGNVSDRTTSQRGQNGMLLRDNIFGSIEEDAQRRDFTINSLYYSVADFTVRDYVGGMKDLKDGVIRLIGNPETRYREDPVRMLRAVRFAAKLGMRISPETAEPIPRLATLLNDIPPARLFEESLKLLQAGYGYETYKLLCEYHLFQPLFPTITRYFTENGDSPMERIIEQVLKNTDTRIHNDMRVNPAFLFAAMFWYPLLETAQKIAQESGLTYHDAFALAMNDVLDEACRSLAIPKRLTTLTRDIWQLQLRMSRRQGKRAWKLLEHPKFRAAYDLLALRAEVERNAELQRLVKWWGEFQVSAPPDQKGMLNELDEEPSPRRRTRRPRKRAPRREGTA [P0ABF1]”, the “total protein half-life in vivo” value [1] is reported as 6.05 ± 0.76 h, the “total protein half-life in vivo” value [2] is reported as 5.89 ± 0.71 h and the “total protein half-life in vivo” value [3] is reported as 3.67 ± 0.17 h. For the same sequence, the “total protein half-life in vivo” value [4] was 3.728 ± 0.025 h, the “total protein half-life in vivo” value [5] was 3.45 ± 0.18 h and the “total protein half-life in vivo” value [6] was 2.324 ± 0.019 h. The “total protein half-life in vivo” value [7] was 4.37 ± 0.12 h, the “total protein half-life in vivo” value [8] was 6.58 ± 0.41 h and the “total protein half-life in vivo” value [9] was 3.84 ± 0.079 h. The “total protein half-life in vivo” value [10] was 6.19 ± 0.3 h, the “total protein half-life in vivo” value [11] was 3.92 ± 0.57 h and the “total protein half-life in vivo” value [12] was 7.24 ± 0.26 h.

With “MFVKLLRSVAIGLIVGAILLVAMPSLRSLNPLSTPQFDSTDETPASYNLAVRRAAPAVVNVYNRGLNTNSHNQLEIRTLGSGVIMDQRGYIITNKHVINDADQIIVALQDGRVFEALLVGSDSLTDLAVLKINATGGLPTIPINARRVPHIGDVVLAIGNPYNLGQTITQGIISATGRIGLNPTGRQNFLQTDASINHGNSGGALVNSLGELMGINTLSFDKSNDGETPEGIGFAIPFQLATKIMDKLIRDGRVIRGYIGIGGREIAPLHAQGGGIDQLQGIVVNEVSPDGPAANAGIQVNDLIISVDNKPAISALETMDQVAEIRPGSVIPVVVMRDDKQLTLQVTIQEYPATN [P0AEE3]” the “total protein half-life in vivo” value [1] was 7.33 ± 0.89 h, the “total protein half-life in vivo” value [3] was 5.79 ± 0.39 h and the “total protein half-life in vivo” value [4] was 5.86 ± 0.29 h. The “total protein half-life in vivo” value [5] was 6.21 ± 0.68 h, the “total protein half-life in vivo” value [6] was 3.25 ± 0.23 h and the “total protein half-life in vivo” value [7] was 5.91 ± 0.28 h. The “total protein half-life in vivo” value [8] was 11.3 ± 1.2 h, the “total protein half-life in vivo” value [9] was 5.98 ± 0.72 h and the “total protein half-life in vivo” value [10] was 13.8 ± 2.3 h. The “total protein half-life in vivo” value [11] was 7.16 ± 0.27 h and the “total protein half-life in vivo” value [12] was 12.1 ± 0.81 h.

With “MGGISIWQLLIIAVIVVLLFGTKKLGSIGSDLGASIKGFKKAMSDDEPKQDKTSQDADFTAKTIADKQADTNQEQAKTEDAKRHDKEQV” the “total protein half-life in vivo” value [1] was 4.809 ± 0.026 h, the “total protein half-life in vivo” value [2] was 4.72 ± 0.96 h and the “total protein half-life in vivo” value [3] was 4.51 ± 0.3 h. The “total protein half-life in vivo” value [4] was 4.05 ± 0.54 h, the “total protein half-life in vivo” value [5] was 4.55 ± 0.22 h and the “total protein half-life in vivo” value [6] was 2.93 ± 0.082 h. The “total protein half-life in vivo” value [7] was 5.337 ± 0.019 h, the “total protein half-life in vivo” value [8] was 9.34 ± 0.37 h and the “total protein half-life in vivo” value [9] was 4.72 ± 0.21 h. The “total protein half-life in vivo” value [10] was 9.53 ± 2.4 h, the “total protein half-life in vivo” value [11] was 4.41 ± 0.37 h and the “total protein half-life in vivo” value [12] was 8.96 ± 0.53 h.
